Assay results as given in the supplement of paper PMC12042874.
± gives the uncertainty stated by the source.

Experiment: amyloid nucleation score (Sup35N fusion, yeast selection) (log enrichment); library NNK2; higher = more nucleation; inactive = no reads after selection
Outline: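 Output and input plasmid inserts were sequenced by Illumina after psi-negative yeast carrying Sup35N fused to peptides of 20 random codons had been induced 24 hours with 100 μM copper sulfate and grown 7 days at 30°C on medium lacking adenine and uracil. The nucleation score is the DiMSum log enrichment of output over input reads, centred on the mode score of non-aggregating sequences. Sequences with under 100 input reads were excluded.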

For NGTSLTMTYIRKLAFRGLEK, which amyloid nucleation score is on record?
The amyloid nucleation score was 0.215 ± 0.26.

With NGVKEYLGNTSWKCTNRA as the substance, how does the amyloid nucleation score read?
Its amyloid nucleation score is -0.137 ± 0.5.

For NGVQKVVCQGTRLGCVLGLD, which amyloid nucleation score is on record?
The amyloid nucleation score was 0.131 ± 0.45.

Which amyloid nucleation score does the source give for NGYRG here?
Its amyloid nucleation score is 0.376 ± 0.53.

Which amyloid nucleation score does the source give for NHAQMDMKTHVINRLCKE here?
Its amyloid nucleation score is 0.605 ± 0.57.

Which amyloid nucleation score does the source give for NHLIV here?
The amyloid nucleation score was -1.09 ± 0.3.

With NHMLL as the substance, how does the amyloid nucleation score read?
Its amyloid nucleation score is -0.313 ± 0.76.

With NHSGRYGRRLILRLGFFGVG as the substance, how does the amyloid nucleation score read?
Its amyloid nucleation score is -0.655 ± 0.28.

With NIEVWMFYSLMNMNEA as the substance, how does the amyloid nucleation score read?
The amyloid nucleation score was -0.509 ± 1.1.

Which amyloid nucleation score does the source give for NIFMWSSTEIHCRWKVFLRL here?
The amyloid nucleation score was -0.949 ± 0.44.

Which amyloid nucleation score does the source give for NIMSFFHLSLGVDFVHVSPG here?
The amyloid nucleation score was 0.144 ± 0.19.

For NIQDLARSLDRDWTYIGIES, which amyloid nucleation score is on record?
Its amyloid nucleation score is 3.65 ± 0.079.

Which amyloid nucleation score does the source give for NIRKMSGFVNSYTAYSQGEL here?
Its amyloid nucleation score is “inactive”.

Which amyloid nucleation score does the source give for NISCNSGSPGSNMTGCQESS here?
The amyloid nucleation score was 0.767 ± 0.8.

For NISHVVNLHAWLYRLL, which amyloid nucleation score is on record?
Its amyloid nucleation score is 3.39 ± 0.13.

For NISMTTWW, which amyloid nucleation score is on record?
Its amyloid nucleation score is 4.71 ± 0.11.

With NIVVVYIEFSGVHPTLVLLW as the substance, how does the amyloid nucleation score read?
The amyloid nucleation score was -0.42 ± 0.3.

Which amyloid nucleation score does the source give for NKFKG here?
Its amyloid nucleation score is 0.19 ± 1.1.

With NKLTVPYTVDVNDTILDRGK as the substance, how does the amyloid nucleation score read?
The amyloid nucleation score was -0.015 ± 0.46.

For NKSSLRVCRPLSWNMSMVSN, which amyloid nucleation score is on record?
The amyloid nucleation score was 0.593 ± 0.44.

With NKVMGAEGCTGLEL as the substance, how does the amyloid nucleation score read?
Its amyloid nucleation score is -0.744 ± 0.28.

For NKYYLSNLMTCLAQKLSSSG, which amyloid nucleation score is on record?
The amyloid nucleation score was 0.053 ± 1.1.

With NLCSGTIVVFIGCMKAAWFV as the substance, how does the amyloid nucleation score read?
Its amyloid nucleation score is 4.39 ± 0.045.

With NLDGCTVIS as the substance, how does the amyloid nucleation score read?
Its amyloid nucleation score is 0.774 ± 0.51.

For NLFYKKSLRLCYGLLQLRDF, which amyloid nucleation score is on record?
Its amyloid nucleation score is “inactive”.

With NLGGRFCAGFRRNHTCLGRN as the substance, how does the amyloid nucleation score read?
The amyloid nucleation score was -0.458 ± 0.33.

Which amyloid nucleation score does the source give for NLLTPFRLRPKTHLDLYRSC here?
The amyloid nucleation score was -0.196 ± 1.1.

Which amyloid nucleation score does the source give for NLSNELSCI here?
Its amyloid nucleation score is “inactive”.

For NLSVHAENLDNNRSGAEV, which amyloid nucleation score is on record?
Its amyloid nucleation score is -0.102 ± 0.76.

Which amyloid nucleation score does the source give for NLSWLVNWMEYVRGRLW here?
Its amyloid nucleation score is -0.56 ± 0.4.

For NLSYDHPACCKWNRCYVKHR, which amyloid nucleation score is on record?
Its amyloid nucleation score is 1.81 ± 0.14.

Which amyloid nucleation score does the source give for NLVVCGNISGCLCYDYSFGK here?
Its amyloid nucleation score is 8.187 ± 0.032.

For NLYMPDS, which amyloid nucleation score is on record?
The amyloid nucleation score was 0.395 ± 0.8.

For NMFLFLCVRVCGVAFDKGKV, which amyloid nucleation score is on record?
Its amyloid nucleation score is 2.28 ± 0.13.

For NMFVSSRSM, which amyloid nucleation score is on record?
Its amyloid nucleation score is 0.585 ± 0.8.

Which amyloid nucleation score does the source give for NMLYHYIDRSCRGAMDHHGR here?
Its amyloid nucleation score is “inactive”.

With NMPEFC as the substance, how does the amyloid nucleation score read?
The amyloid nucleation score was 0.283 ± 0.21.

Which amyloid nucleation score does the source give for NNCVQTGSGGGGRCLRDTCG here?
Its amyloid nucleation score is 3.8 ± 0.085.

Which amyloid nucleation score does the source give for NNLATPRQRVWLQVTLPARP here?
Its amyloid nucleation score is 0.692 ± 0.21.

With NNNFMRTR as the substance, how does the amyloid nucleation score read?
Its amyloid nucleation score is 2.44 ± 0.066.

With NNQYINWMRKCG as the substance, how does the amyloid nucleation score read?
Its amyloid nucleation score is -0.671 ± 0.41.

With NNWYILPFAGFWDFGA as the substance, how does the amyloid nucleation score read?
The amyloid nucleation score was 5.341 ± 0.03.

For NPEDPQSMLLVVGCVEKN, which amyloid nucleation score is on record?
The amyloid nucleation score was 0.214 ± 0.54.

For NPGETDQRQSWSCSDCPAFS, which amyloid nucleation score is on record?
Its amyloid nucleation score is 1.51 ± 0.35.

For NPLHP, which amyloid nucleation score is on record?
Its amyloid nucleation score is 0.116 ± 0.24.

With NPTYYRARGE as the substance, how does the amyloid nucleation score read?
Its amyloid nucleation score is 2.96 ± 0.11.

For NQLKGYTIYWVL, which amyloid nucleation score is on record?
The amyloid nucleation score was 4.45 ± 0.063.

For NQLLTVSWYSL, which amyloid nucleation score is on record?
The amyloid nucleation score was 2.76 ± 0.091.

For NQRVLLLLKSVLYMMVAK, which amyloid nucleation score is on record?
Its amyloid nucleation score is “inactive”.

For NQTCTE, which amyloid nucleation score is on record?
Its amyloid nucleation score is 0.7 ± 0.66.

With NRCFEGFAVARFDAGRV as the substance, how does the amyloid nucleation score read?
The amyloid nucleation score was -0.378 ± 1.

Which amyloid nucleation score does the source give for NRDVFWRFLVTTVVYELSSK here?
Its amyloid nucleation score is “inactive”.

For NRDVRCGVRPQHVCFQ, which amyloid nucleation score is on record?
The amyloid nucleation score was “inactive”.

With NRFAHNALVAL as the substance, how does the amyloid nucleation score read?
The amyloid nucleation score was 4.08 ± 0.062.

With NRFQYGCNSGSMTVWGALWF as the substance, how does the amyloid nucleation score read?
The amyloid nucleation score was 0.706 ± 0.81.

Which amyloid nucleation score does the source give for NRILWSPNEKLLKHVTQVTL here?
The amyloid nucleation score was -0.795 ± 0.61.

Which amyloid nucleation score does the source give for NRKSSHYSKNCRTLLHTS here?
Its amyloid nucleation score is -0.097 ± 1.1.

Which amyloid nucleation score does the source give for NRKTSGLYVFRWRKRPR here?
The amyloid nucleation score was 0.264 ± 0.4.

With NRLDNFRHQTEGKRRV as the substance, how does the amyloid nucleation score read?
Its amyloid nucleation score is -0.841 ± 1.1.

Which amyloid nucleation score does the source give for NRNKAASYNGLYCFDPAIVD here?
Its amyloid nucleation score is -1.09 ± 0.55.

With NRNPYILGYLRPPEVDYWWW as the substance, how does the amyloid nucleation score read?
The amyloid nucleation score was -0.627 ± 1.1.

Which amyloid nucleation score does the source give for NRQLWYPSINKYFFKSADPL here?
The amyloid nucleation score was “inactive”.

For NRRGANCVQS, which amyloid nucleation score is on record?
Its amyloid nucleation score is -0.372 ± 0.39.

Which amyloid nucleation score does the source give for NRRYLKPSGPEEGWMMLSGT here?
Its amyloid nucleation score is 1.03 ± 0.35.

For NRTAFPCFLA, which amyloid nucleation score is on record?
Its amyloid nucleation score is -0.473 ± 0.49.

With NSAPRGQCRSVFGLMYSYSI as the substance, how does the amyloid nucleation score read?
The amyloid nucleation score was “inactive”.

For NSDCEVPFTWFVMLIGAPGG, which amyloid nucleation score is on record?
Its amyloid nucleation score is -0.393 ± 0.76.

Which amyloid nucleation score does the source give for NSDISARCGSCVYLWYVSDD here?
The amyloid nucleation score was 8.712 ± 0.048.

For NSFVAIKCIV, which amyloid nucleation score is on record?
The amyloid nucleation score was -0.023 ± 0.33.

For NSGSGAAFGVSLHVVNCARS, which amyloid nucleation score is on record?
The amyloid nucleation score was 0.045 ± 0.79.

Which amyloid nucleation score does the source give for NSGSYTSSFNDLVDTLSVLS here?
Its amyloid nucleation score is “inactive”.

With NSIGV as the substance, how does the amyloid nucleation score read?
The amyloid nucleation score was -1.02 ± 0.55.

With NSKGN as the substance, how does the amyloid nucleation score read?
The amyloid nucleation score was 0.112 ± 1.1.

For NSNFRLTCTFSSMHYKLARG, which amyloid nucleation score is on record?
The amyloid nucleation score was 2.9 ± 0.21.

For NSNGEFIKGACHMVRLFGLQ, which amyloid nucleation score is on record?
The amyloid nucleation score was 0.098 ± 1.

With NSPMSKSLNRT as the substance, how does the amyloid nucleation score read?
Its amyloid nucleation score is 0.347 ± 0.22.

Which amyloid nucleation score does the source give for NSRLEVGSNSKQDLMAMSKT here?
The amyloid nucleation score was -1.12 ± 0.74.

With NSSRGQPHLSNFPIRHHHVN as the substance, how does the amyloid nucleation score read?
The amyloid nucleation score was 0.461 ± 0.66.

Which amyloid nucleation score does the source give for NSVETLMNQRCWVCHTCCVK here?
The amyloid nucleation score was -0.472 ± 0.64.

With NSVRNTYWKAPGNLTEGVSG as the substance, how does the amyloid nucleation score read?
The amyloid nucleation score was -0.054 ± 0.4.

For NTAVSYFNHKSVAFFYFCDL, which amyloid nucleation score is on record?
The amyloid nucleation score was 4.94 ± 0.064.

Which amyloid nucleation score does the source give for NTEKSIVVRDMIKDSYPFSV here?
Its amyloid nucleation score is “inactive”.

With NTFQSKDRGQWCSTRNAYKG as the substance, how does the amyloid nucleation score read?
The amyloid nucleation score was -0.772 ± 0.45.

Which amyloid nucleation score does the source give for NTHFFVMRVEFGPWYTSSCS here?
Its amyloid nucleation score is 2.42 ± 0.21.

With NTLLILHIDICYVYSVILTF as the substance, how does the amyloid nucleation score read?
The amyloid nucleation score was -0.942 ± 0.76.
